Measurements reported in patent JP2011219380A (dated 2011).

T1: 成熟型ヒトVEGF-D(Hisタッグ付加、二量体、参考例3) (human, UniProt O43915 93-201)
T1 construct: also called human VEGF-D; not shown: His tag
T1 sequence: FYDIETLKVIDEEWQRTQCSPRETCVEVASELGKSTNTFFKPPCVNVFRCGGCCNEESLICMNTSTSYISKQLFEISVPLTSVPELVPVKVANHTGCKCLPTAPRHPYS

T2: 成熟型カニクイザルVEGF-D(Hisタッグ付加、二量体、参考例3) (cynomolgus monkey, UniProt O43915 93-201 (human entry))
T2 construct: also called cynomolgus VEGF-D; not shown: His tag
T2 chain: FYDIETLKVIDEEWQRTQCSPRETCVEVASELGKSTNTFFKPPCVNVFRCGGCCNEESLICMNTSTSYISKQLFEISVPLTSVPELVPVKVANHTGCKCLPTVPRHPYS


biological target: T1, 成熟型ヒトVEGF-D(Hisタッグ付加、二量体、参考例3); test: competition cell ELISA, antibody titrated against 2.5 ug/mL human VEGF-D on human VEGFR-3 CHO cells

binding result | Binder
binds | VE29キメラ抗体 (antibody, human IgG1, V domains shown, also called キメラVE29; chimeric VE29) VH: DVQLQESGPGLVKPSQTVSLTCTVTGYSITNRYHWWNWIRQVSGNKLEWIGYISYSGDTVSNPSLKSRISITRDTSKNQLFLQLNSVTTEDIATYYCARDGGIYFDYWGQGTTLTVSS VL: not shown
binds | VE199キメラ抗体 (antibody, human IgG1, V domains shown, also called キメラVE199; chimeric VE199) VH: EVQLQQSGPELVKPGASVKMSCKASGYSFTGYNMHWVKQSHGRSLEWIGYIDPYNGDTYYNQKFRDKATLTVDKSSSTAYMQLNSLTSEDSALYYCIRAGYYAMDYWGQGTSVTVSS VL: DIVMTQTPLSLPVSLGDQASISCRSSQSLVHINGNTYLHWYLQKPGQSPKLLIYKVSNRFSGVPDRFSGSGSGTDFTLKISRVEAEDLGVYFCSQGTHVPRTFGGGTKLEIN

biological target: T1, 成熟型ヒトVEGF-D(Hisタッグ付加、二量体、参考例3); test: competition cell ELISA, inhibition of human VEGF-D binding to human VEGFR-3 CHO cells, against chimeric VE48

binding result | Binder
binds | ヒト化VE199抗体(H鎖:VE199HA、L鎖:VE199LA) (antibody, human IgG1, kappa, V domains shown, also called VE199HALA) VH: QVQLVQSGPEVKKPGASVKVSCKASGYTFTGYNMHWVRQAPGQGLEWMGYIDPYNGDTYYNQKFQDRVTLTVDKSTSTAYMELSSLRSEDTAVYYCIRAGYYAMDYWGQGTLVTVSS VL: DIVMTQTPLSLPVTPGEPASISCRSSQSLVHINGNTYLHWYLQKPGQSPQLLIYKVSNRFSGVPDRFSGSGSGTDFTLKISRVEAEDVGVYFCSQGTHVPRTFGGGTKVEIKR
binds | ヒト化抗体VE48抗体(48HI/48L6) (antibody, V domains shown, The light chain is VE48L6; also called VE48HI/VE48L6) VH: QVTLKESGPALVKPTQTLTLTCTFSGFSLSDYGMGVGWIRQPPGKALEWLANIWWNDDKYYNPVLRSRLTISKDTSKNQVVLTMTNMDPVDTATYYCVQVTNPFVFWGQGTLVTVSS VL: DIVMTQTPLSLPVTPGEPASISCRSSQSLVHINGNTYLHWYLQKPGQSPQLLIYKVSNRFSGVPDRFSGSGSGTDFTLKISRVEAEDVGVYFCSQSTHVPWTFGGGTKVEIKR
binds | ヒト化抗体VE48抗体(48H18/48L6) (antibody, V domains shown, The light chain is VE48L6; also called VE48H18/VE48L6) VH: QVTLKESGPALVKPTQTLTLTCTFSGFSLSDYGMGVGWIRQPPGKALEWLANIWWEDDKYYNPVLRSRLTISKDTSKNQVVLTMTNMDPVDTATYYCVQVTNPFVFWGEGTLVTVSS VL: DIVMTQTPLSLPVTPGEPASISCRSSQSLVHINGNTYLHWYLQKPGQSPQLLIYKVSNRFSGVPDRFSGSGSGTDFTLKISRVEAEDVGVYFCSQSTHVPWTFGGGTKVEIKR
binds | ヒト化抗体VE48抗体(48HH/48L6) (antibody, V domains shown, The light chain is VE48L6; also called VE48HH/VE48L6) VH: QVTLKESGPALVKPTQTLTLTCTFSGFSLSTYGMGVGWIRQPPGKALEWLANIWWEDDKYYNPVLRSRLTISKDTSKNQVVLTMTNMDPVDTATYYCVQVTNPFVFWGQGTLVTVSS VL: DIVMTQTPLSLPVTPGEPASISCRSSQSLVHINGNTYLHWYLQKPGQSPQLLIYKVSNRFSGVPDRFSGSGSGTDFTLKISRVEAEDVGVYFCSQSTHVPWTFGGGTKVEIKR
binds | HA/L14(H鎖:VE48HA、L鎖:VE48L14) (antibody, human IgG1, kappa, V domains shown, also called 48HA/48L14) VH: QVTLKESGPALVKPTQTLTLTCTFSGFSLSTYGMGVGWIRQPPGKALEWLANIWWNDDKYYNPVLRSRLTISKDTSKNQVVLTMTNMDPVDTATYYCVQVTNPFVFWGQGTLVTVSS VL: DIVMTQTPLSLPVTPGEPASISCRSSQSLVHIKGNTYLHWYLQKPGQSPQLLIYKVSNRFSGVPDRFSGSGSGTDFTLKISRVEAEDVGVYFCSQSTHVPWTFGGGTKVEIKR
binds | ヒト化抗体VE48抗体(48HJ/48L6) (antibody, V domains shown, The light chain is VE48L6; also called VE48HJ/VE48L6) VH: QVTLKESGPALVKPTQTLTLTCTFSGFSLSTYGMGVGWIRQPPGKALEWLANIWWNDDKYYNPVLQDRLTISKDTSKNQVVLTMTNMDPVDTATYYCVQVTNPFVFWGQGTLVTVSS VL: DIVMTQTPLSLPVTPGEPASISCRSSQSLVHINGNTYLHWYLQKPGQSPQLLIYKVSNRFSGVPDRFSGSGSGTDFTLKISRVEAEDVGVYFCSQSTHVPWTFGGGTKVEIKR

Further lines, the binder ahead of its results:

Binder | binding result
ヒト化VE48抗体(H鎖:VE48HA、L鎖:VE48L6) (antibody, human IgG1, kappa, V domains shown, also called 48HA/48L6; HA/L6) VH: QVTLKESGPALVKPTQTLTLTCTFSGFSLSTYGMGVGWIRQPPGKALEWLANIWWNDDKYYNPVLRSRLTISKDTSKNQVVLTMTNMDPVDTATYYCVQVTNPFVFWGQGTLVTVSS VL: DIVMTQTPLSLPVTPGEPASISCRSSQSLVHINGNTYLHWYLQKPGQSPQLLIYKVSNRFSGVPDRFSGSGSGTDFTLKISRVEAEDVGVYFCSQSTHVPWTFGGGTKVEIKR | binds
ヒト化抗体VE48抗体(48HK/48L6) (antibody, V domains shown, The light chain is VE48L6; also called VE48HK/VE48L6) VH: QVTLKESGPALVKPTQTLTLTCTFSGFSLSTYGMGVGWIRQPPGKALEWLANIWWNDDKYYNPVLRSRLTISKDTSKNQVVLTMTNMDPVDTATYYCVQVTNPFVFWGEGTLVTVSS VL: DIVMTQTPLSLPVTPGEPASISCRSSQSLVHINGNTYLHWYLQKPGQSPQLLIYKVSNRFSGVPDRFSGSGSGTDFTLKISRVEAEDVGVYFCSQSTHVPWTFGGGTKVEIKR | binds
ヒト化抗体VE48抗体(48H16/48L6) (antibody, V domains shown, The light chain is VE48L6; also called VE48H16/VE48L6) VH: QVTLKESGPALVKPTQTLTLTCTFSGFSLSDYGMGVGWIRQPPGKALEWLANIWWNDDKYYNPVLRSRLTISKDTSKNQVVLTMTNMDPVDTATYYCVQVTNPFVFWGEGTLVTVSS VL: DIVMTQTPLSLPVTPGEPASISCRSSQSLVHINGNTYLHWYLQKPGQSPQLLIYKVSNRFSGVPDRFSGSGSGTDFTLKISRVEAEDVGVYFCSQSTHVPWTFGGGTKVEIKR | binds
ヒト化抗体VE48抗体(48H17/48L6) (antibody, V domains shown, The light chain is VE48L6; also called VE48H17/VE48L6) VH: QVTLKESGPALVKPTQTLTLTCTFSGFSLSTYGMGVGWIRQPPGKALEWLANIWWEDDKYYNPVLRSRLTISKDTSKNQVVLTMTNMDPVDTATYYCVQVTNPFVFWGEGTLVTVSS VL: DIVMTQTPLSLPVTPGEPASISCRSSQSLVHINGNTYLHWYLQKPGQSPQLLIYKVSNRFSGVPDRFSGSGSGTDFTLKISRVEAEDVGVYFCSQSTHVPWTFGGGTKVEIKR | binds

Biological target: T2, 成熟型カニクイザルVEGF-D(Hisタッグ付加、二量体、参考例3)
Test: competition cell ELISA, antibody titrated against 2.5 ug/mL cynomolgus VEGF-D on cynomolgus VEGFR-3 CHO cells

binding result | Binder
binds | VE199キメラ抗体 (antibody, human IgG1, V domains shown, also called キメラVE199; chimeric VE199) VH: EVQLQQSGPELVKPGASVKMSCKASGYSFTGYNMHWVKQSHGRSLEWIGYIDPYNGDTYYNQKFRDKATLTVDKSSSTAYMQLNSLTSEDSALYYCIRAGYYAMDYWGQGTSVTVSS VL: DIVMTQTPLSLPVSLGDQASISCRSSQSLVHINGNTYLHWYLQKPGQSPKLLIYKVSNRFSGVPDRFSGSGSGTDFTLKISRVEAEDLGVYFCSQGTHVPRTFGGGTKLEIN
